The target in series [1] is T1, MexR wild-type (Pseudomonas aeruginosa clinical isolate Pae d1 Green) (UniProt P52003).
T1 sequence: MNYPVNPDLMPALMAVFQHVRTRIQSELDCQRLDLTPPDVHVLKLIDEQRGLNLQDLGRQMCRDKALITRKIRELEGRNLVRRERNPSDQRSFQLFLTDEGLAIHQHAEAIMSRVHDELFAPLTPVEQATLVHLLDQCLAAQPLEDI
Kind of series: EMSA. In general terms: Mobility shift assays separate free from complexed probe on a gel.

For series [2], the target named is T2, MexR Gln55Pro Q55P (Pseudomonas aeruginosa clinical isolate Pae d14 Green) (UniProt P52003).
T2 sequence: T1 sequence with Q55P
Kind of series: EMSA.

Where a chain is given by its changes, count along the chain named.

Consider “GTTGCATAGCGTTGTCCTCATGAGCGAAAGCGGCCGATGCAGCGTGAAGGCGCTGCACCGGCTCGAAGAAGGCAGGCAAAATACTTACATTCATAGGTGTTTGTAAACGTCCGAAAGCCTCGCGTGAAAACACCTGAAACGTTTTAGCTCGATGGCCGGTTATCCACCCGGCGCCATGGCCCATATTCAGAACCTGAAACAAGGTTGATAAGGTCAACTAAAATAAGCAAAATAGTTGACTGGATCAACCACATTTACATTAGGTTTACTCGGCCAAACCAATGAACTACC (double strand) [mexR-mexAB intergenic region 291 bp]”, for which the binding result is reported as “binds” in series [1] and “no binding” in series [2].

These data come from article PMC11705820.
